Data: paper PMC9087378 (Immunity, 2021)
Substitutions are numbered along the chain they refer to. Names may count otherwise. Where no end group is shown, it is not given here. The star is where a group is joined. Biotin = O=C1N[C@H]2[C@H](CS[C@H]2CCCCC(=O)*)N1

T1: peptide 21 (PfCSP residues 101-115) (Plasmodium falciparum)
T1 chain: NPDPNANPNVDPNAN

T2: Biotinylated junctional peptide NPDP19 (Plasmodium falciparum NF54/3D7)
T2 chain: Biotin-KQPADGNPDPNANPNVDPN

T3: peptide 21, biotinylated (Plasmodium falciparum NF54/3D7, also: biotin, position not given here)
T3 chain: NPDPNANPNVDPNAN

T4: peptide NANP5, biotinylated (Plasmodium falciparum, biotin (position not given))
T4 chain: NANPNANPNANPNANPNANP

B1: iGL-CIS43.D3 Fab (Fab, V domains shown)
VH: QVHLVQSGAEVKKPGASVKVSCKASGYTFTRYAIHWVRQAPGQRLEWMGWIKGGNGNTRYSQKFQDRVTITRDTSASTAYMELSSLRSEDTAVYYCALLTVITPDDAFDIWGQGTMVTVSS
VL: not shown
B2: iGL_Core8 with the reversion K52N in the heavy chain (antibody, V domains shown)
VH: B1 VH with H3Q, R31S, K52N, G53A, D66G
VL: not shown
B3: iGL_Core8 with the reversion I34M in the heavy chain (antibody, V domains shown)
VH: B1 VH with H3Q, R31S, I34M, G53A, D66G
VL: not shown
B4: iGL_Core8 with the reversion S94T in the light chain (antibody, V domains shown)
VH: B1 VH with H3Q, R31S, G53A, D66G
VL: not shown
B5: mature CIS43 Fab (Fab, V domains shown)
VH: B1 VH with H3Q, R31S, G53A, A76T, S77T, I102L
VL: not shown
B6: iGL-CIS43-HL.K28.m42.127 Fab (Fab, V domains shown)
VH: B1 VH with H3Q, R31S, G53A, A107T
VL: not shown
B7: iGL-CIS43-HL.K28.m43.151 Fab (Fab, V domains shown)
VH: B1 VH with R31S
VL: not shown
B8: iGL_Core8 with the reversion R58K in the heavy chain (antibody, V domains shown)
VH: B1 VH with H3Q, R31S, G53A, R59K, D66G
VL: not shown
B9: iGL_Core8 with the reversion I98V in the heavy chain (antibody, V domains shown)
VH: B1 VH with H3Q, R31S, G53A, D66G, I102V
VL: not shown

Tests used:
[1] = target: T1, peptide 21 (PfCSP residues 101-115); assay: crystal structure
[2] = target: T2, Biotinylated junctional peptide NPDP19; assay: BLI
[3] = target: T2, Biotinylated junctional peptide NPDP19; assay: AlphaScreen or HTRF
[4] = target: T3, peptide 21, biotinylated; assay: BLI
[5] = target: T4, peptide NANP5, biotinylated; assay: BLI

Binder	binding result [1]	binding result [3]	further results
B1	binds	–	Kd [2]: 1.01 nM
B2	–	binds	–
B3	–	binds	–
B4	–	binds	–
B5	–	–	binding result [4]: binds; binding result [5]: binds
B6	binds	–	–
B7	binds	–	–
B8	–	binds	–
B9	–	binds	–
